Experimental data as given in patent US6528487B1, “Peptide inhibitors of inflammation mediated by selectins” (Centocor, Inc., priority 1991, dated 2003).
No end group written: not given here. *: point of attachment. Fmoc = O=C(OCC1c2ccccc2-c2ccccc21)*

Target: T1, GMP-140 (Homo sapiens, UniProt P16109)
T1 construct: from tissue; host or cells: human platelets (outdated platelet packs from a blood bank)
T1 sequence (P16109 42-830): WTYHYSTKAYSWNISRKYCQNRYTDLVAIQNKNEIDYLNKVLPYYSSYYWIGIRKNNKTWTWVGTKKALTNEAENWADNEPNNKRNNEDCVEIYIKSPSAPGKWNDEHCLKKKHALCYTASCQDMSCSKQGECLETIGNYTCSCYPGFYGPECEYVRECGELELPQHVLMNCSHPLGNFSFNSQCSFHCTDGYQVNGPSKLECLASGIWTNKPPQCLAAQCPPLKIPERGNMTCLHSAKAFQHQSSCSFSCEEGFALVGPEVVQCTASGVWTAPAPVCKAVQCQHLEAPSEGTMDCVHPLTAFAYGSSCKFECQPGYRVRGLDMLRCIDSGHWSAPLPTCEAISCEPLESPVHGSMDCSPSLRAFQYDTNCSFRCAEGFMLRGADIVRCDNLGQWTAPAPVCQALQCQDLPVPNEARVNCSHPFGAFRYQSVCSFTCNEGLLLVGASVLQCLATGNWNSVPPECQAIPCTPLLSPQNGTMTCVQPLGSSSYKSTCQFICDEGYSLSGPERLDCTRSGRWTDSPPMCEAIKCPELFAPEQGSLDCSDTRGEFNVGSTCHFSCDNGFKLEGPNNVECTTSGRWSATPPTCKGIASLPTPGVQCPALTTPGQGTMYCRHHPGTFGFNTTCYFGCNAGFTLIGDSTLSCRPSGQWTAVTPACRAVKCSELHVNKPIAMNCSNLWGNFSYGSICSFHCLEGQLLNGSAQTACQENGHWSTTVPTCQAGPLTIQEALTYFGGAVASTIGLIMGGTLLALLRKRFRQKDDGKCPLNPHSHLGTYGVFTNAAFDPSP
Experiment: Inhibition of neutrophil binding to GMP-140 coated wells
Type: cell-based
Conditions: human neutrophils, immobilized GMP-140; for inhibition at 100 µM / inhibition at 1000 µM / inhibition at 500 µM: read-out: Percent inhibition of neutrophil binding to GMP-140
Source text: Peptides can be screened for their ability to inhibit adhesion to cells, for example, neutrophil adhesion to purified GMP-140 immobilized on plastic wells, using the assay described by Geng, et al., Nature 343, 757-760 (1990).
Human neutrophils are isolated from heparinized whole blood by density gradient centrifugation on Mono-Poly resolving media, Flow laboratories. Neutrophil suspensions are greater than 98% pure and greater than 95% viable by trypan blue exclusion. For adhesion assays, neutrophils are suspended at a concentration of 2×10^6 cells/mL in Hanks' balanced salt solution containing 1.26 mM Ca^2+ and 0.81 mM Mg^2+ (HBSS, Gibco) with 5 mg/mL human serum albumin (HBSS/HSA). Adhesion assays are conducted in triplicate in 96-well microtiter plates, Corning, incubated at 4° C. overnight with 50 microliters of various protein solutions.
GMP-140 is isolated from human platelet lysates by immunoaffinity chromatography on antibody S12-Sepharose™ and ion-exchange chromatography on a Mono-Q™ column (FLPC, Pharmacia Fine Chemicals, as follows.
GMP-140 is plated at 5 micrograms/mL and the control proteins: human serum albumin (Alb), platelet glycoprotein Iib/IIIha (Iib), von Willebrand factor (vWF), fibrinogen (FIB), thrombomodulin™, gelatin (GEL) or human serum (HS), are added at 50 micrograms/mL. All wells are blocked for 2 h at 22° C. with 300 microliters HBSS containing 10 mg/mL HSA, then ashed three times with HBSS containing 0.1% Tween-20 and once with HBSS. Cells (2×10^5 per well are added to the wells and incubated at 22° C. for 20 min. The wells are then filled with HGSS/HSA, sealed with acetate tape (Dynatech), and centrifuged inverted at 150 g for 5 min. After discarding nonadherent cells and supemates, the contents of each well are solubilized with 200 microliters of 0.5% hexadecyltrimethylammonium bromide, Sigma, in 50 mM potassium phosphate, pH 6.0, and assayed for myeloperoxidase activity, Ley, et al., Blood 73, 1324-1330 (1989). The number of cells bound is derived from a standard curve of myeloperoxidase activity versus numbers of cells. Under all assay conditions, the cells release less than 5% of total myeloperoxidase and lactate dehydrogenase. Inhibition is read as a lower percent adhesion, so that a value of 5% means that 95% of the specific adhesion was inhibited.
Binding of various peptides to GMP-140 coated wells, as described above, were compared.
Binding of the peptides at various concentrations, ranging from 0.05 to 1 mM were compared.
A 5 μg/mL solution of GMP-140 in HBSS (buffer) is prepared. 50 μL is pipetted per well with the exception of three wells (A10 to A12) and the plate is stored overnight at 0° C. to 4° C. The liquids are removed by aspiration and 300 μL of 5 mg/mL human serum albumin (HSA)/HBSS is placed in the wells coated with GMP-140 plus the three non-coated wells to be used as control wells. The plate is allowed to incubate at room temperature for two hours. The HSA/HBSS solution is removed and the wells washed three times with 300 μL/well of HBSS. The third 300 μL wash of HBSS is left in each well and the plate is kept at room temperature until it is used.
Eight to ten mL of fresh human blood collected in heparinized tubes is carefully layered over 5 mL of the Mono-Poly Resolving Medium in 15 mL polypropylene centrifuge tubes. The tubes are centrifuged for 30 minutes at room temperature and 1400 to 1600 rpm. The tubes are rotated 180° and centrifuged for another 30 minutes under the same conditions. The top plasma layer and first cellular layer of leukocytes are drawn off. The second cellular layer of neutrophils is harvested (usually 2 to 3 mL per tube) and is placed in a clean 15 mL centrifuge tube. This is then underlayered with 1.5 mL of fresh resolving medium and spun at 2000 rpm for 15 minutes at room temperature. This is done to further purify the neutrophils from residual red blood cells. […]

Substance | Percent inhibition of neutrophil binding to GMP-140 (peptide concentration 0.1 mM) [%] | Percent inhibition of neutrophil binding to GMP-140 (peptide concentration 0.5 mM) [%] | inhibition at 100 µM (peptide concentration 0.1 mM) [%] | inhibition at 1000 µM (peptide concentration 1.0 mM) [%] | Percent inhibition of neutrophil binding to GMP-140 (peptide concentration 1.0 mM) [%] | inhibition at 500 µM (peptide concentration 0.5 mM) [%]
Arg-Lys-Asn-Asn-Lys-Thr-Trp-Thr-Trp-Glu-NH2 (RKNNKTWTWE-NH2) | 17 | 20 |  |  |  | 
RKNNKTWTWVGTKKALTNEC-NH2 [Arginyl-lysyl-asparaginyl-asparaginyl-lysyl-threonyl-tryptophyl-threonyl-tryptophyl-valyl-glycyl-threonyl-lysyl-lysyl-alanyl-leucyl-threonyl-asparaginyl-glutamyl-cysteine-amide] |  |  | 9 | 47 |  | 
Arg-Lys-Asn-Asn-Lys-Thr-Trp-NH2 (RKNNKTW-NH2) | 31 | 53 |  |  | 99 | 
KWKWNRTNVT-NH2 [reference compound] | 0 | 0 |  |  | 0 | 
Arg-Lys-Val-Asn-Asn-Val-Trp-NH2 (RKVNNVW-NH2) |  |  |  |  | 17 | 
RKNNKTWTWV (Synthetic inhibitory peptide) [Arginyl-lysyl-asparaginyl-asparaginyl-lysyl-threonyl-tryptophyl-hreonyl-tryptophyl-valine] | 14 |  |  |  | 35 | 
Tyr-Lys-Asn-Asn-Lys-Thr-Trp-Thr-Trp-Val-NH2 (YKNNKTWTWV-NH2) | 9 | 98 |  |  | 104 | 
RKNNKTWT-NH2 | 26 | 23 |  |  | 34 | 
RKNNKTWTWV-NH2 [RKNNKTWTWV-NH2, Arginyl-lysyl-asparaginyl-asparaginyl-lysyl-threonyl-tryptophyl-threonyl-tryptophyl-valine-amide] | 14 | 30 | 13 |  |  | 20
FMOC-Asn-Asn-Lys-Thr-Trp-NH2 (Fmoc-NNKTW-NH2; SMILES C[C@@H](O)[C@H](NC(=O)[C@H](CCCCN)NC(=O)[C@H](CC(N)=O)NC(=O)[C@H](CC(N)=O)NC(=O)OCC1c2ccccc2-c2ccccc21)C(=O)N[C@@H](Cc1c[nH]c2ccccc12)C(N)=O) | 85 | 100 |  |  | 99 | 
Cys-Arg-Lys-Asn-Asn-Lys-Thr-Trp-Thr-Trp-Val-NH2 (CRKNNKTWTWV-NH2) | 87 |  |  |  | 105 | 
RKVNNVWVWV-NH2 [RKVNNVWVWV-NH2, Arginyl-lysyl-valyl-asparaginyl-asparaginyl-valyl-tryptophyl-valyl-tryptophyl-valine-amide] |  |  | 94 |  |  | 102
RKVNNVWVWV [RKVNNVWVWV, Arginyl-lysyl-valyl-asparaginyl-asparaginyl-valyl-tryptophyl-valyl-tryptophyl-valine] |  |  | 82 |  |  | 98
Arg-Glu-Asn-Asn-Lys-Thr-Trp-Thr-Trp-Val-NH2 (RENNKTWTWV-NH2) | 34 | 94 |  |  | 96 | 
Ac-Arg-Lys-Asn-Asn-Lys-Thr-Trp-Thr-Trp-Val-NH2 (Ac-RKNNKTWTWV-NH2) | 35 | 50 |  |  |  | 
RKNNGTWTWV-NH2 [RKNNGTWTWV-NH2, Arginyl-lysyl-asparaginyl-asparaginyl-glycyl-threonyl-tryptophyl-threonyl-tryptophyl-valine-amide] |  |  | 46 | 99 |  | 99
